Test results taken from PMC7504384, “Insight into the Folding and Dimerization Mechanisms of the N-Terminal Domain from Human TDP-43” (International Journal of Molecular Sciences, 2020).

Assays:
[1] = target: the molecule itself; assay: SEC; analytical gel filtration, Superdex 200 Increase 10/300 GL, 4 °C, 5 mM phosphate buffer, 50 mM NaCl, pH 7.4, without DTT; 100 µL of 0.5 mg/mL (58.7 µM) NTD loaded; masses from a calibration curve; also run with 150 mM NaCl without DTT
[2] = target: the molecule itself; assay: dynamic light scattering; 0.5 mg/mL (58.7 µM) NTD in 5 mM sodium phosphate buffer, 50 mM NaCl, 1 mM DTT, pH 7.4, 25 °C, no urea; hydrodynamic diameter compared with values calculated for monomer and dimer

B1: N-terminal domain of human TDP-43 (NTD_(1–77)) (domain or fragment, UniProt Q13148 1-77, looked up)
chain: MSEYIRVTEDENDEPIEIPSEDDGTVLLSTVTAQFPGACGLRYRNPVSQCMRGVRLVEGILHAPDAGWGNLVYVVNY
notes: devoid of any tag; calculated mass 8.53 kDa; Cloning, expression and purification are told only in the Supplementary Materials; also called NTD TDP-43; wild-type protein; source: purified as described in the Supplementary Materials (>95% pure)
In the case of B1, the “stoichiometry N” value [1] is reported as 4 and the “stoichiometry N” value [2] is reported as 2.
